The target in assay [1] is T1, full-length nidogen-1 (murine, UniProt P10493 29-1245).
T1 construct: For photo-cross-linking the protein was made in Leu- and Met-depleted medium with photo-Met and photo-Leu; 13-25% of all leucines and methionines were partially replaced; also called entactin; source: HEK 293 EBNA cells, purified (Nickel-NTA Superflow); not shown: (His)6, N-terminal, kept
T1 sequence (looked up): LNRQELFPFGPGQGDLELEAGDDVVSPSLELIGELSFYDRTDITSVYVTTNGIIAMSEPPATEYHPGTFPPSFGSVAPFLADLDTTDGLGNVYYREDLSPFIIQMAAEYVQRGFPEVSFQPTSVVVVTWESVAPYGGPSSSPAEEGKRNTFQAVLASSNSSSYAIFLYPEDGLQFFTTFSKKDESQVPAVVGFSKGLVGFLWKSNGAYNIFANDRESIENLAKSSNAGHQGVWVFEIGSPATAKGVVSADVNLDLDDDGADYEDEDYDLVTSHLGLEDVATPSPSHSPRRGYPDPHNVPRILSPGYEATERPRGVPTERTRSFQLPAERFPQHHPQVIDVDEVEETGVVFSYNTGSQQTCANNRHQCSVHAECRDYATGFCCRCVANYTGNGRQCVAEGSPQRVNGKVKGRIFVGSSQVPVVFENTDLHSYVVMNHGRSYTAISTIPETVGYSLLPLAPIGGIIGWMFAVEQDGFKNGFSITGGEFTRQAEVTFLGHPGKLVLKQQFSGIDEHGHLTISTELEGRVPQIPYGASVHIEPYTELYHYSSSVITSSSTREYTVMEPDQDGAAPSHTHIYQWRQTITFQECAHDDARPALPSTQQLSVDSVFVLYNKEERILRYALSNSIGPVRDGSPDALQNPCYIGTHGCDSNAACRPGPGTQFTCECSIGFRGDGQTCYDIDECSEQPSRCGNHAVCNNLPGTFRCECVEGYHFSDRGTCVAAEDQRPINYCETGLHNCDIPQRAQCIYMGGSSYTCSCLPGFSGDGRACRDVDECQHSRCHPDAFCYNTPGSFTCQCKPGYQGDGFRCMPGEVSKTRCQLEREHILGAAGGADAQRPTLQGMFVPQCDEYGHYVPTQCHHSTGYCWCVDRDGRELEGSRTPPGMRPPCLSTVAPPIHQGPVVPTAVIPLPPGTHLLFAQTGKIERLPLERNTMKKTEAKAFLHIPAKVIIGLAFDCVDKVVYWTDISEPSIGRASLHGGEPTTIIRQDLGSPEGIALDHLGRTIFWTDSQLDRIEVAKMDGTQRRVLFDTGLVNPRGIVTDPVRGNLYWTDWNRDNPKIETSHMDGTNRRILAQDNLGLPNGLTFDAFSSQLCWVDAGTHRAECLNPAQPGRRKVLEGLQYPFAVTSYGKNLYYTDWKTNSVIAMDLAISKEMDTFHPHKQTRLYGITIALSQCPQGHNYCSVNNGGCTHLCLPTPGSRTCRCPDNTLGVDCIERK
Description: SPR; nidogen-1 immobilised by amine coupling on a CM5 chip; laminin variants as mobile analytes; single-cycle kinetics, 25°C, 20 mM HEPES, 100 mM NaCl, 0.05% Tween 20, pH 7.5; 1:1 binding model; apparent Kd. For orientation: In SPR one partner is held on a chip, and binding of the other changes the refractive index at the surface.

Assay [2] deals with laminin γ1 short arm (murine). Description: ELISA; laminin fragments coated at 10 µg/ml in TBS overnight at 4°C; nidogen-1 0.03 nM to 234 nM in TBS-T/1% BSA, 1 h at room temperature; detected by anti-(His)6 antibody; apparent Kd.
Assay [3] has as its target laminin γ1 LEb2–4 N836D (murine). The assay is described as above.
Assay [4] addresses T1, full-length nidogen-1. The description is as above. Conditions: both partners purified.

In the case of “laminin γ1 short arm (domain or fragment)”, the Kd in assay [1] was determined as 12 nM.

B1: full-length nidogen-1 (natural protein)
chain: T1 sequence (looked up)
In the case of B1, the figures for the Kd in assay [2] and in assay [3] were 1.1 nM and 34 nM, respectively.

B2: laminin γ1 LEb2–4 (domain or fragment, murine)
chain: QPCPCPGGSSCAIVPKTKEVVCTHCPTGTAGKRCELCDDGYFGDPLGSNGPVRLCRPCQCNDNIDPNAVGNCNRLTGECLKCIYNTAGFYCDRCKEGFFGNPLAPNPADKCKACACNPYGTVQQQSSCNPVTGQCQCLPHVSGRDCGTCDPGYYNLQSGQGCER
notes: For photo-cross-linking made with photo-Met and photo-Leu partially incorporated; the limits of LEb2–4 may be marked there; also called laminin γ1 LEb2–4 wild type; LEb2–4 fragment; source: HEK 293 EBNA cells, purified (Strep-Tactin sepharose)
B2: the Kd in assay [4] came to 1.4 nM.

B3: laminin γ1 short arm N836D (domain or fragment)
chain: AMDECADEGGRPQRCMPEFVNAAFNVTVVATNTCGTPPEEYCVQTGVTGVTKSCHLCDAGQQHLQHGAAFLTDYNNQADTTWWQSQTMLAGVQYPNSINLTLHLGKAFDITYVRLKFHTSRPESFAIYKRTREDGPWIPYQYYSGSCENTYSKANRGFIRTGGDEQQALCTDEFSDISPLTGGNVAFSTLEGRPSAYNFDNSPVLQEWVTATDIRVTLNRLNTFGDEVFNEPKVLKSYYYAISDFAVGGRCKCNGHASECVKNEFDKLMCNCKHNTYGVDCEKCLPFFNDRPWRRATAESASESLPCDCNGRSQECYFDPELYRSTGHGGHCTNCRDNTDGAKCERCRENFFRLGNTEACSPCHCSPVGSLSTQCDSYGRCSCKPGVMGDKCDRCQPGFHSLTEAGCRPCSCDLRGSTDECNVETGRCVCKDNVEGFNCERCKPGFFNLESSNPKGCTPCFCFGHSSVCTNAVGYSVYDISSTFQIDEDGWRVEQRDGSEASLEWSSDRQDIAVISDSYFPRYFIAPVKFLGNQVLSYGQNLSFSFRVDRRDTRLSAEDLVLEGAGLRVSVPLIAQGNSYPSETTVKYIFRLHEATDYPWRPALSPFEFQKLLNNLTSIKIRGTYSERTAGYLDDVTLQSARPGPGVPATWVESCTCPVGYGGQFCETCLPGYRRETPSLGPYSPCVLCTCNGHSETCDPETGVCDCRDNTAGPHCEKCSDGYYGDSTLGTSSDCQPCPCPGGSSCAIVPKTKEVVCTHCPTGTAGKRCELCDDGYFGDPLGSNGPVRLCRPCQCNDNIDPDAVGNCNRLTGECLKCIYNTAGFYCDRCKEGFFGNPLAPNPADKCKACACNPYGTVQQQSSCNPVTGQCQCLPHVSGRDCGTCDPGYYNLQSGQGCERCDCHALGSTNGQCDIRTGQCECQPGITGQHCERCETNHFGFGPEGCKPCDCHHEGSL
modifications: Secreted from HEK293 EBNA cells, so disulfide-bonded LE modules and likely N-glycans. Double Strep tag II omitted. Paper numbering (Asn-836) is one higher than UniProt; classical Asn-802 + 33-residue
B3: the Kd in assay [4] worked out at 45 nM.

(Values after publication PMC4227867, “Analysis of Nidogen-1/Laminin γ1 Interaction by Cross-Linking, Mass Spectrometry, and Computational Modeling Reveals Multiple Binding Modes” (PLoS ONE, 2014).)
